Source: publication PMC3971453, “Crystallographic structure of the turbine C-ring from spinach chloroplast F-ATP synthase” (Bioscience Reports, 2014)

Molecular target: the molecule itself
Assay: crystal structure; crystals grown from the entire CF1FO-ATP synthase (18 mg/ml), vapour diffusion, 33% (v/v) PEG 550 MME, 0.05 M sodium acetate pH 4.3; only the c-ring in the crystal; molecular replacement with PDB 2W5J; refined to 6.0 Å

B1: subunit c of the CF1FO-ATP synthase from spinach chloroplasts (natural protein, spinach (Spinacea oleracea L.), UniProt P69447 1-81, looked up)
chain: MNPLIAAASVIAAGLAVGLASIGPGVGQGTAAGQAVEGIARQPEAEGKIRGTLLLSLAFMEALTIYGLVVALALLFANPFV
notes: ATP synthase subunit c (subunit III), chloroplastic, Spinacia oleracea; native protein from the tissue; the last four C-terminal amino acids are not visible in the electron density map; Native, untagged protein; Homo-oligomeric ring of 14 copies; also called subunit III; c-ring; source: the c-ring alone was left in the crystal; copies: 14
- stoichiometry N: 14
